Measurements: patent US20060241289A1
Values joined by “and” are separate entries in the source; they are usually repeats but may differ in a detail not shown here. Identical values can stand only once. Like-named read-outs stand apart in the source and are kept apart here. Each block holds one binder with its values, some of them ahead of it.

What was measured:
[1] = molecular target: human TSH receptor on CHO cells (human) (UniProt P16473); test: cell-based or functional assay
[2] = molecular target: human TSH receptor on CHO cells (human) (UniProt P16473); test: cell-based or functional assay; remark: listed apart in the source
[3] = molecular target: TSH receptor coated onto plastic tubes (UniProt P16473); test: TSHR coated tubes; 9D33 IgG 1 µg/mL; competitor 125I-TSH
[4] = molecular target: TSH receptor coated onto plastic tubes (UniProt P16473); test: TSHR coated tubes; 9D33 IgG 10 µg/mL; competitor 125I-TSH
[5] = molecular target: TSH receptor coated onto plastic tubes (UniProt P16473); test: TSHR coated tubes; 9D33 IgG 0.001 µg/mL; competitor 125I-hMAb TSHR1
[6] = molecular target: TSH receptor coated onto plastic tubes (UniProt P16473); test: 125I-9D33 binding to TSHR coated tubes in the pool of healthy blood donor sera
[7] = molecular target: TSH receptor coated onto plastic tubes (UniProt P16473); test: TSHR coated tubes; 9D33 IgG 0.001 µg/mL; competitor 125I-9D33
[8] = molecular target: TSH receptor coated onto plastic tubes (UniProt P16473); test: TSHR coated tubes; 9D33 IgG 0.01 µg/mL; competitor 125I-hMAb TSHR1
[9] = molecular target: TSH receptor coated onto plastic tubes (UniProt P16473); test: TSHR coated tubes; 9D33 IgG 0.01 µg/mL; competitor 125I-TSH
[10] = molecular target: TSH receptor coated onto plastic tubes (UniProt P16473); test: TSHR coated tubes; 9D33 IgG 0.001 µg/mL; competitor 125I-TSH
[11] = molecular target: TSH receptor coated onto plastic tubes (UniProt P16473); test: TSHR coated tubes; 9D33 IgG 0.1 µg/mL; competitor 125I-hMAb TSHR1
[12] = molecular target: TSH receptor coated onto plastic tubes (UniProt P16473); test: TSHR coated tubes; 9D33 IgG 1 µg/mL; competitor 125I-9D33
[13] = molecular target: TSH receptor coated onto plastic tubes (UniProt P16473); test: TSHR coated tubes; 9D33 IgG 0.01 µg/mL; competitor 125I-9D33
[14] = molecular target: TSH receptor coated onto plastic tubes (UniProt P16473); test: TSHR coated tubes; 9D33 IgG 1 µg/mL; competitor 125I-hMAb TSHR1
[15] = molecular target: TSH receptor coated onto plastic tubes (UniProt P16473); test: TSHR coated tubes; 9D33 IgG 0.1 µg/mL; competitor 125I-9D33
[16] = molecular target: TSH receptor coated onto plastic tubes (UniProt P16473); test: 125I-9D33 binding to TSHR coated tubes in the pool of healthy blood donor sera, no 90/672
[17] = molecular target: TSH receptor coated onto plastic tubes (UniProt P16473); test: TSHR coated tubes; 9D33 IgG 0.1 µg/mL; competitor 125I-TSH
[18] = molecular target: TSH receptor coated onto plastic tubes (UniProt P16473); test: TSHR coated tubes; 9D33 IgG 10 µg/mL; competitor 125I-hMAb TSHR1
[19] = molecular target: TSH receptor coated onto plastic tubes (UniProt P16473); test: TSHR coated tubes; 9D33 IgG 10 µg/mL; competitor 125I-9D33

mean pmol cyclic AMP/cell well; 2B4 IgG 100 µg/mL alone (pmol/cell well) [1]: 0.331
mean pmol cyclic AMP/cell well; hMAb TSHR1 Fab 5 ng/mL plus 2B4 IgG 100 µg/mL (pmol/cell well) [1]: 2.94
pmol cyclic AMP/cell well; 2B4 IgG 100 µg/mL alone (pmol/cell well) [1]: 0.298 and 0.318 and 0.376
pmol cyclic AMP/cell well; hMAb TSHR1 Fab 5 ng/mL plus 2B4 IgG 100 µg/mL (pmol/cell well) [1]: 3.32 and 2.63 and 2.86
x basal stimulation; 2B4 IgG 100 µg/mL alone [1]: 0.46 x basal
x basal stimulation; hMAb TSHR1 Fab 5 ng/mL plus 2B4 IgG 100 µg/mL [1]: 4 x basal
mean pmol cyclic AMP/cell well; 2B4 IgG 100 µg/mL alone (pmol/cell well) [2]: 0.49
mean pmol cyclic AMP/cell well; pTSH 0.5 ng/mL plus 2B4 IgG 100 µg/mL (pmol/cell well) [2]: 0.78
pmol cyclic AMP/cell well; 2B4 IgG 100 µg/mL alone (pmol/cell well) [2]: 0.446 and 0.486 and 0.552
pmol cyclic AMP/cell well; pTSH 0.5 ng/mL plus 2B4 IgG 100 µg/mL (pmol/cell well) [2]: 0.878 and 0.71 and 0.742
x basal stimulation; 2B4 IgG 100 µg/mL alone [2]: 1.4 x basal
x basal stimulation; pTSH 0.5 ng/mL plus 2B4 IgG 100 µg/mL [2]: 2.3 x basal
B1: 2B4 IgG (mouse monoclonal antibody to the TSHR) (antibody, from another filing, V domains shown)
VH: DVQLQQSGTVLARPGASVRMSCKASGYSFTRYWIHWLKQRPGQGLEWIGAIFPGNRDTSYNQRFKGKAEVTAVTSASTAYLDLSSLTNEDSAVYYCTRWPYYGSIYVNFDYWGQGTTLTVSS
VL: DIVMTQSPLSLPVSLGDQASISCRTSQNLVHRNGNTYLHWYLQKPGQSPKLLIYKISNRFSGVPDRFSGSGSGTDFTLKISRVEAEDLGVYFCSQGTHVPPTFGGGTKLEIKR

inhibition of 125I-TSH binding [3]: 58%
inhibition of 125I-TSH binding [4]: 68%
inhibition of 125I-hMAb TSHR1 binding [5]: 0%
125I-9D33 bound (% total counts added) [6]: 11%
inhibition of 125I-9D33 binding [7]: 4%
inhibition of 125I-hMAb TSHR1 binding [8]: 3%
inhibition of 125I-TSH binding [9]: 17%
inhibition of 125I-TSH binding [10]: 0%
inhibition of 125I-hMAb TSHR1 binding [11]: 21%
inhibition of 125I-9D33 binding [12]: 64%
inhibition of 125I-9D33 binding [13]: 9%
inhibition of 125I-hMAb TSHR1 binding [14]: 44%
inhibition of 125I-9D33 binding [15]: 35%
125I-9D33 bound (% total counts added) [16]: 15%
inhibition of 125I-TSH binding [17]: 34%
inhibition of 125I-hMAb TSHR1 binding [18]: 56%
inhibition of 125I-9D33 binding [19]: 71%
B2: 9D33 IgG (mouse monoclonal antibody to the TSHR) (antibody, V domains shown)
VH: DVQIQQPGTELVKPGASVRLSCKASGYTFTTYWMHWVKQRPGQGLEWIGEIDPSDSYTNYNQKFKGKATLTVDKSSSTAYMHLSSLTSEDSAVYYCSRNYGSGYYFDYWGQGTTLTVSS
VL: GVEMTQSPAIMSASPGEKVTMTCSASSSVSYMHWYQQKSGTSPKRWIYDTSKLASGVPARFSGSGSGTSYSLTISSMETEDAATYYCQQWSSNPWTFGGGTKLEIK
